Legend:
[1] = molecular target: EGFR-GFP (GFP-labelled epidermal growth factor receptor) in SW620-EGFR-GFP cells (human) (UniProt P00533)
[2] = molecular target: EGFR-GFP (GFP-labelled epidermal growth factor receptor) in SW620-EGFR-GFP cells (human) (UniProt P00533); remark: listed apart in the source

## EGF-TMR (epidermal growth factor conjugated to tetramethylrhodamine) (ligand)
[1]
  percent of EGFR foci colocalized with EGF (3-60 min): 40%
  percent of all tracked EGFR molecules in foci colocalized with EGF: 64%
[2]
  mean relative stoichiometry EGFR:EGF: 4.2 EGFR:EGF
  stoichiometry N: 1.9 EGFR:EGF

Reference: doi:10.1101/2020.07.11.198572
